The text below walks through data of US20140148361, “Generation and Expression of Engineered I-ONUI Endonuclease and Its Homologues and Uses Thereof” (published 2014).

The target in one data set is T1, I-LtrI (Leptographium truncatum, UniProt C7SWF3 C7SWF3:407-712).
T1 sequence: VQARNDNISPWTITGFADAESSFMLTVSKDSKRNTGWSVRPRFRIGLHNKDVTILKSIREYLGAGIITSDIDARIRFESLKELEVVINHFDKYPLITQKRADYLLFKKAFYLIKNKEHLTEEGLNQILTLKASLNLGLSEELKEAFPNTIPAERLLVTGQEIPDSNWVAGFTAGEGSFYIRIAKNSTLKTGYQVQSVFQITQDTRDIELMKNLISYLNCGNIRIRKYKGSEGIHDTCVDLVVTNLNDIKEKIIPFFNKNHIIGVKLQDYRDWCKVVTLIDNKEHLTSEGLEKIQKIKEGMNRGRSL
The data set can be described thus: structure; co-crystal structure at 2.7 A (PDB 3R7P). The note with it: overhang ends. How it is done:
To obtain I-LtrI-DNA co-crystals, the DNA oligonucleotides (5′-[…]-3′ (SEQ ID NO: 119) and 5′-[…]-3′ (SEQ ID NO:120)) were purchased from Integrated DNA Technologies ([…], standard desalting purification). The oligonucleotides were dissolved in TE buffer (10 mM Tris-HCl (pH 8.0) and 1 mM EDTA), and the complementary DNA strands were annealed by incubation at 95° C. for 10 min and slow cooling to 4° C. over a six hour period. […] The protein-DNA drops were mixed in a 1:1 volume ratio with a reservoir solution containing 100 mM Bis-Tris (pH 6.5), 200 mM magnesium chloride, and 20% (v/v) polyethylene glycol 3500 and equilibrated at 22° C. The crystals diffracted up to approximately 2.7 Å resolution at the ALS beamline 5.0.1. The data set was processed using HKL2000 package. The polyalanine model of I-OnuI/DNA complex (PDB ID: 3QQY) was used as a search model for molecular replacement. One copy of the search model was found and the structure was refined using REFMAC5. The final model was deposited in RCSB Protein Data Bank with ID code 3R7P.

Another data set has as its target T2, I-OnuI (Ophiostoma novo-ulmi).
T2 chain: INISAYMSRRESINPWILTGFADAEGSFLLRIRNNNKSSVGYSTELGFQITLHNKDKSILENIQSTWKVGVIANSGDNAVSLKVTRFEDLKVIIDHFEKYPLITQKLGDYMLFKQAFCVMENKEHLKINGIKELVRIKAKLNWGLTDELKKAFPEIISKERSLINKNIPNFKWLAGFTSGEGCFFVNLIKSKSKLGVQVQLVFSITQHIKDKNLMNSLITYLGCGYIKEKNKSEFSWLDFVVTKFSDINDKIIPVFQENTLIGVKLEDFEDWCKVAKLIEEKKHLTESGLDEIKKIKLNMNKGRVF
The data set can be described thus: structure; co-crystal structure at 2.4 A (PDB 3QQY). The note with it: tags: GST fusion (pGEX-6P-3), tag removed by PreScission protease; label: 32P (radiolabeled) in EMSA and cleavage. On the technique in general: In EMSA bound probe runs differently from free probe, usually more slowly.

B1: I-LtrI co-crystal duplex (dsDNA)
DNA 1: GGTCTAAACGTCGTATAGGAGCATTTGG
DNA 2: CAAATGCTCCTATACGACGTTTAGACCC
On to B1, for which the binding result with I-LtrI is recorded as “binds”.

B2: I-OnuI wild-type target site (RPS3) (dsDNA)
DNA 1: TTTCCACTTATTCAACCTTTTA
DNA 2: TAAAAGGTTGAATAAGTGGAAA
On to B2, for which, in the data set with I-OnuI, the binding result was “binds”.
